Data as given in patent publication US20050221381A1, “Method for isolating ligands” (priority 2002, published 2005).
“Also recorded” adds a separate entry of the source. Where two headings read alike, the source gives them in different places.

Key:
[1] = biological target: T1, soluble DRB1*0401 molecules (DR4) (Homo sapiens, UniProt P01903+P01911, A100K/A169T/F76Y/I96L/K127E/L162R/M171V/N62H/P40V/Q125Y/R42H/S133A/S149N/S66Y/V115G/V209L/W38E); assay type: binding; parameters: key: +++: high binding affinity; ++: moderate binding affinity; +: low binding affinity; −: no binding; conditions: individual pp65 15mer, SDS-stability assay
T1 construct: Soluble HLA class I A*0201 and HLA class II DRA1*0101/DRB1*0101/Ii, DRA1*0101/DRB1*0401/Ii and DRA1*0101/DRB1*0404/Ii molecules were expressed in SC-2 cells; made in house; host or cells: SC-2 cells

[2] = biological target: T2, soluble DRB1*0101 molecules (Homo sapiens, UniProt P01903+P01911, A100R/D57E/F55L/F60I/F76Y/I96L/L162R/M171V/P40L/Q125E/R42F/V115G/Y59C); test: Peptide binding assay, SDS-stability assay; parameters: key: +++: high binding affinity; ++: moderate binding affinity; +: low binding affinity; −: no binding; conditions: individual pp65 15mer
T2 construct: Soluble HLA class I A*0201 and HLA class II DRA1*0101/DRB1*0101/Ii, DRA1*0101/DRB1*0401/Ii and DRA1*0101/DRB1*0404/Ii molecules were expressed in SC-2 cells; made in house; host or cells: SC-2 cells

[3] = biological target: T1, soluble DRB1*0401 molecules (DR4); assay type: binding; parameters: key to DR4 binding: +++: high binding affinity; ++: moderate binding affinity; +: low binding affinity; −: no binding; key to Binding to DRB1 *0401: −: no binding/T cell response; +/−: weak binding/T cell response; +: intermediate binding/T cell response; ++: strong binding/T cell response; conditions: for Binding to DRB1 *0401: soluble DRB1*0401 molecules
[4] = tested on: HLA-DRB1*0401-transgenic mice splenocytes; assay type: in vivo, mouse; parameters: key to DRB1*0401 mice total SC (T cell response) / DRB1*0401 mice CD4+ (T cell response): −: no binding/T cell response; +/−: weak binding/T cell response; +: intermediate binding/T cell response; ++: strong binding/T cell response
[5] = biological target: T3, soluble DRB1*0404 molecules (Homo sapiens, UniProt P01903+P01911, A100R/A169T/F76Y/I96L/K127E/L162R/M171V/N62H/P40V/Q125Y/R42H/S133A/S149N/S66Y/V209L/W38E); test: Peptide binding assay, SDS-stability assay; parameters: key: −: no binding/T cell response; +/−: weak binding/T cell response; +: intermediate binding/T cell response; ++: strong binding/T cell response
T3 construct: Soluble HLA class I A*0201 and HLA class II DRA1*0101/DRB1*0101/Ii, DRA1*0101/DRB1*0401/Ii and DRA1*0101/DRB1*0404/Ii molecules were expressed in SC-2 cells; made in house; host or cells: SC-2 cells

[6] = biological target: T1, soluble DRB1*0401 molecules (DR4); assay type: binding; parameters: key: −: no binding/T cell response; +/−: weak binding/T cell response; +: intermediate binding/T cell response; ++: strong binding/T cell response; conditions: longer peptides no. 1500-1505
DRB1*0701 = DRB1*0701 (Homo sapiens, UniProt P01903+P01911, A100R/A102G/A103Q/D57E/D86V/E43K/F76Y/K127E/L162R/M171V/P40G/Q125H/Q99D/R33Q/R42Y/R54Q/S133A/S66F/T210M/V115G/Y107V/Y59L/Y89S); test: Peptide-competition assay with biotinylated CLIP peptide (ELISA); assay type: binding; parameters: key: −: no binding/T cell response; +/−: weak binding/T cell response; +: intermediate binding/T cell response; ++: strong binding/T cell response
Description: (§1) The binding affinities to DRB1*0701 and DRB1*1101 were tested by a peptide-competition assay (Reay et al., 1992). Briefly, binding of the biotinylated CLIP peptide (reference peptide) has been used for monitoring of HLA:peptide complex formation. […] In the case of lower affinity peptides they should be added in excess to the reference peptide to compete for occupancy of HLA binding grove. […] Alternatively, comparing of the amount of reference peptide bound to HLA molecules in the presence or absence of competitor peptide one can determine the binding activity of the peptide of interest.
(§2) In the present peptide-competition assay conditions of peptide binding were similar to described above. Soluble HLA molecules were used in the concentration of 0.5 μM and biotinylated CLIP was added to all samples in the final concentration of 2 μM. Competitor peptides were added in three different concentrations: 0.25, 5 and 100 μM. Binding reaction was performed in PBS buffer (pH 7.4) for 18 hours at 37° C. […] Briefly, MaxiSorb 96-well plates (Nunc, Denmark) were coated with mouse anti-αβ antibody L243 (purified from ATCC HB-55) by overnight incubation with 50 μl of 10 μg/ml dilution in PBS at 4° C. Non-specific binding to the plastic was blocked by incubation with T-PBS containing 3% of BSA for 2 hours at 37° C. and binding reactions were then “captured” for 2 hours at room temperature. […] The optical density at 405 nm was measured on a microplate reader SUNRISE (Tecan).

DRB1*1101 = DRB1*1101 (Homo sapiens, UniProt P01903+P01911, A100R/A169T/A87E/I96F/K41T/L162R/M171V/P40S/Q125H/Q178H/Q39Y/Q99D/R42S/S66Y/T262R/V115G/W38E); test: as above; assay type: binding; parameters: key: −: no binding/T cell response; +/−: weak binding/T cell response; +: intermediate binding/T cell response; ++: strong binding/T cell response; conditions: for Binding to DRB1*1101: longer peptides no. 1500-1505, peptide-competition assay
Description: as §1, §2

[7] = biological target: T2, soluble DRB1*0101 molecules; test: Peptide binding assay, SDS-stability assay; parameters: key: −: no binding/T cell response; +/−: weak binding/T cell response; +: intermediate binding/T cell response; ++: strong binding/T cell response
[8] = biological target: T4, soluble DRB1*0401 molecules (Homo sapiens, UniProt P01903+P01911, A100K/A169T/F76Y/I96L/K127E/L162R/M171V/N62H/P40V/Q125Y/R42H/S133A/S149N/S66Y/V115G/V209L/W38E); test: Epitope capture from peptide mixtures, gel filtration and MALDI-TOF MS of bound peptides; assay type: binding
T4 construct: Soluble HLA class I A*0201 and HLA class II DRA1*0101/DRB1*0101/Ii, DRA1*0101/DRB1*0401/Ii and DRA1*0101/DRB1*0404/Ii molecules were expressed in SC-2 cells; made in house; host or cells: SC-2 cells
Source text: After peptide binding reaction with soluble HLA molecules, HLA-peptide complexes were separated from free peptides by gel-filtration chromatography on Superdex-200 column (AKTAdesign, Amersham Pharmacia Biotech). HLA-containing fractions were collected, and bound peptides were reconstituted from the complexes by adding TFA to the final concentration of 1%. Peptides were desolted by Ziptip purification and analyzed by MALDI-TOF mass-spectrometry.
Second, the ability to capture peptides binding to HLA class II molecules from the mixture of two high affinity ligands was tested. The binding reaction contained 1 μM of soluble DRB1*0401 molecules and 5 μM of each YAR and 1242 peptide. After the HLA-peptide complexes were formed, they were separated from the excess of free peptides by gel filtration chromatography. Fractions containing MHC molecules were collected. Bound peptides were eluted from the complexes and analyzed by mass-spectrometry.
Third, it was investigated if the binding capacity of the high affinity ligand would be influenced by the excess of low affinity peptide. […] Peptide binding was assessed by SDS-stability assay and verified by MS analysis (FIG. 3).
The final concentration of each peptide in binding reaction was 5 μM, except 1236 added in 55 μM, meaning that the concentration of each individual binding peptide was 20-fold lower than final concentration of all peptides. DRB1*0401 molecules were added to 1 μM. The formation of MHC-peptide complexes was evaluated as described above, using single peptides as controls (FIG. 4). […] The result of this analysis yielded the two peptides with highest binding affinities: 1242 and YAR (see Table 1). The peptides with moderate and/or low affinities were not found in the complexes, probably due to the high concentration of strong competitors used in this assay.

[9] = IFN-gamma ELISpot, enriched CD4+ fraction of splenocytes of HLA-DR4 transgenic mice vaccinated with the longer peptide, ex vivo re-stimulation
[10] = IFN-gamma ELISpot, total splenocytes of HLA-DR4 transgenic mice vaccinated with the longer peptide, ex vivo re-stimulation
[11] = CD4+ fraction of splenocytes, IFN-γ ELISpot
[12] = total splenocytes, ex vivo restimulation, IFN-γ ELISpot
[13] = longer peptides no. 1500-1505, peptide-competition assay

Row | Sequence | Binding to DRB1*0401 [1] | Binding to DRB1*0101 [2] | Binding to DRB1 *0401 [3] | DRB1*0401 mice CD4+ (T cell response) [4, 9] | DRB1*0401 mice total SC (T cell response) [4, 10] | Binding to DRB1*0404 ([5]; soluble DRB1*0404 molecules) | DRB1*0401 mice CD4+ (T cell response) [4, 11] | DRB1*0401 mice total SC (T cell response) [4, 12] | Binding to DRB1*0401 [6] | Binding to DRB1 *0701 (DRB1*0701; DRB1*0701) | Binding to DRB1 *0701 (DRB1*0701; [13]) | Binding to DRB1 1101 (DRB1*1101) | Binding to DRB1*1101 (DRB1*1101) | Binding to DRB1*0101 ([7]; longer peptides no. 1500-1505) | Binding to DRB1*0101 ([7]; soluble DRB1*0101 molecules) | also measured
1 | EPMSIYVYALPLKML [Peptide 107] | − | − |  |  |  |  |  |  |  |  |  |  |  |  |  | 
2 | IYVYALPLKMLNIPS [Peptide 111] | − | − |  |  |  |  |  |  |  |  |  |  |  |  |  | 
3 | QWKEPDVYYTSAFVF [Peptide 174] | − | − | − | +/− | +/− |  |  |  |  |  |  |  |  |  |  | 
4 | QWKEPDVYYTSAFVFPTKDVALR [Peptide 1501] |  |  | + | + | + | − | + | + | + | − | − | + | +/− | ++ | ++ | Binding to DRB1*0404 ([5]; longer peptides no. 1500-1505): −
5 | TSGVMTRGRLKAESTVAPEEDTDE [Peptide 1504] |  |  | + | ++ | + | ++ | ++ | + | + | − | − | + | + | + | + | 
6 | YARFQSQTTLKQKT [reference compound] |  |  |  |  |  |  |  |  |  |  |  |  |  |  |  | Peptides captured from pool of 10 peptides, MS analysis ([8]; each peptide 5 μM, 1236 55 μM, DRB1*0401 1 μM): captured by DR4 molecules; Peptides found in complexes with MHC molecules by MS ([8]; mixture of two ligands, 5 μM each, 1 μM DRB1*0401): revealed in the complexes with MHC molecules; DR4 binding [3]: +++
7 | YRHTWDRHDEGAAQGDDDVW [Peptide 1503] |  |  | +/− | − | − | − | − | − | +/− | − | − | − | − | − | − | Binding to DRB1*0404 ([5]; longer peptides no. 1500-1505): −; Binding to soluble DRB1*0401 molecules (in words) ([3]; SDS-stability assay): weak affinity; Immunogenicity in DRB1*0401-transgenic mice (in words) ([4]; total splenocytes, INF-gamma ELISpot (FIG. 12)): did not induce immune response; also recorded: not immunogenic
